Source: patent US11278600B2, “Human alpha-galactosidase variants” (Codexis, Inc., priority 2014, dated 2022)
Residue numbers refer to the chain shown, from its start.

B1: 141 (protein)
chain: LDNGLARTPTMGWLHWERFMCNLDCQEEPDSCISEKLFMEMAELMVSEGWKDAGYEYLCIDDCWMAPQRDSEGRLQADPQRFPHGIRQLANYVHSKGLKLGIYADVGNKTCAGFPGSFGYYDIDAQTFADWGVDLLKFDGCYCDSLENLADGYKHMSLALNRTGRSIVYSCEWPLYMWPFQKPNYTEIRQYCNHWRNFADIDDSWKSIKSILDWTSFNQERIVDVAGPGGWNDPDMLVIGNFGLSWNQQVTQMALWAIMAAPLFMSNDLRHISPQAKALLQDKDVIAINQDPLGKQGYQLRQGDNFEVWERPLSGLAWAVAMINRQEIGGPRSYTIAVASLGKGVACNPACFITQLLPVKRKLGFYEWTSRLRSHINPTGTVLLQLENTMGMSKDLLL
modifications: Synthetic Polypeptide sequence of Variant No. 141 of mature Human GLA
B2: 144 (protein)
chain: B1 chain with Q80V, G391Q
modifications: Synthetic Polypeptide sequence of Variant No. 144 of mature Human GLA
B3: 142 (protein)
chain: B1 chain with Q80A, G391Q
modifications: Synthetic Polypeptide sequence of Variant No. 142 of mature Human GLA
B4: 149 (protein)
chain: B1 chain with Q88S, G391Q
modifications: Synthetic Polypeptide sequence of Variant No. 149 of mature Human GLA
B5: 147 (protein)
chain: B1 chain with Q88H, G391Q
modifications: Synthetic Polypeptide sequence of Variant No. 147 of mature Human GLA
B6: 148 (protein)
chain: B1 chain with Q88R, G391Q
modifications: Synthetic Polypeptide sequence of Variant No. 148 of mature Human GLA
B7: 150 (protein)
chain: B1 chain with R162H, G391Q
modifications: Synthetic Polypeptide sequence of Variant No. 150 of mature Human GLA
B8: 145 (protein)
chain: B1 chain with Q88A, G391Q
modifications: Synthetic Polypeptide sequence of Variant No. 145 of mature Human GLA
B9: 143 (protein)
chain: B1 chain with Q80H, G391Q
modifications: Synthetic Polypeptide sequence of Variant No. 143 of mature Human GLA
B10: 146 (protein)
chain: B1 chain with Q88F, G391Q
modifications: Synthetic Polypeptide sequence of Variant No. 146 of mature Human GLA
B11: 37 (protein)
chain: B1 chain with D105A, G391Q
modifications: Synthetic Polypeptide sequence of Variant No. 37 of mature Human GLA

assay: HTP-analysis of supernatants pretreated with base (MUGal hydrolysis); assay type: biochemical; settings: challenge at pH 7.1; activity of the variant/activity of WT GLA (SEQ ID NO: 5); yeast supernatant
How it was run: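 GLA variants secreted from yeast INVSc1; culture supernatants pre-incubated with McIlvaine buffer pH 7.0–8.2 or 200 mM bicarbonate pH 9.1–9.7 at 37° C. for 1–18 h. Residual activity: MUGal (4 mM stock) hydrolysis at pH 4.3–4.8, 37° C., 30–180 min, carbonate quench; fluorescence Ex 355/Em 448 nm.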

| Molecule | Relative Activity of GLA Variants After Challenge at pH 7.1 |
| --- | --- |
| B1 | + (+ = 0.5 to 1.5 relative activity over WT GLA (SEQ ID NO: 5)) |
| B2 | + (+ = 0.5 to 1.5 relative activity over WT GLA (SEQ ID NO: 5)) |
| B3 | + (+ = 0.5 to 1.5 relative activity over WT GLA (SEQ ID NO: 5)) |
| B4 | ++ (++ = >1.5 to 2.5 relative activity over WT GLA (SEQ ID NO: 5)) |
| B5 | ++ (++ = >1.5 to 2.5 relative activity over WT GLA (SEQ ID NO: 5)) |
| B6 | + (+ = 0.5 to 1.5 relative activity over WT GLA (SEQ ID NO: 5)) |
| B7 | + (+ = 0.5 to 1.5 relative activity over WT GLA (SEQ ID NO: 5)) |
| B8 | + (+ = 0.5 to 1.5 relative activity over WT GLA (SEQ ID NO: 5)) |
| B9 | + (+ = 0.5 to 1.5 relative activity over WT GLA (SEQ ID NO: 5)) |
| B10 | + (+ = 0.5 to 1.5 relative activity over WT GLA (SEQ ID NO: 5)) |
| B11 | + (+ = 0.5 to 1.5 relative activity over WT GLA (SEQ ID NO: 5)) |

assay: HTP-analysis of yeast culture supernatants, no challenge (MUGal hydrolysis); assay type: biochemical; settings: activity of the variant/activity of WT GLA (SEQ ID NO: 5), yeast supernatant
How it was run: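 GLA variants expressed in yeast INVSc1, secreted into SD-Ura broth over 66-84 h at 30° C; clarified supernatants tested without challenge. Supernatant mixed with McIlvaine buffer pH 4.8 and 2 mM MUGal (citrate/KCl, pH 4.6), 37° C for 30-180 min, carbonate-quenched, fluorescence Ex 355/Em 448 nm.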

| Molecule | Relative Activity of GLA Variants After No Challenge (NC) |
| --- | --- |
| B1 | + (+ = 0.5 to 1.5 relative activity over WT GLA (SEQ ID NO: 5)) |
| B2 | + (+ = 0.5 to 1.5 relative activity over WT GLA (SEQ ID NO: 5)) |
| B3 | + (+ = 0.5 to 1.5 relative activity over WT GLA (SEQ ID NO: 5)) |
| B4 | ++ (++ = >1.5 to 2.5 relative activity over WT GLA (SEQ ID NO: 5)) |
| B5 | ++ (++ = >1.5 to 2.5 relative activity over WT GLA (SEQ ID NO: 5)) |
| B6 | + (+ = 0.5 to 1.5 relative activity over WT GLA (SEQ ID NO: 5)) |
| B7 | + (+ = 0.5 to 1.5 relative activity over WT GLA (SEQ ID NO: 5)) |
| B8 | + (+ = 0.5 to 1.5 relative activity over WT GLA (SEQ ID NO: 5)) |
| B9 | + (+ = 0.5 to 1.5 relative activity over WT GLA (SEQ ID NO: 5)) |
| B10 | + (+ = 0.5 to 1.5 relative activity over WT GLA (SEQ ID NO: 5)) |
| B11 | + (+ = 0.5 to 1.5 relative activity over WT GLA (SEQ ID NO: 5)) |

assay: HTP-analysis of supernatants pretreated with acid (MUGal hydrolysis); assay type: biochemical; settings: challenge at pH 4.2; activity of the variant/activity of WT GLA (SEQ ID NO: 5); yeast supernatant
How it was run: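 Yeast INVSc1 supernatant, GLA variants; acid challenge: McIlvaine pH 3.3-4.3, 37° C., 1-3 h. Assay: MUGal in McIlvaine pH 4.8 plus citrate pH 4.3, 37° C., 30-180 min, Na2CO3 stop, Ex 355/Em 448 nm.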

| Molecule | Relative Activity of GLA Variants After Challenge at pH 4.2 |
| --- | --- |
| B1 | + (+ = 0.5 to 1.5 relative activity over WT GLA (SEQ ID NO: 5)) |
| B2 | ++ (++ = >1.5 to 2.5 relative activity over WT GLA (SEQ ID NO: 5)) |
| B3 | + (+ = 0.5 to 1.5 relative activity over WT GLA (SEQ ID NO: 5)) |
| B4 | + (+ = 0.5 to 1.5 relative activity over WT GLA (SEQ ID NO: 5)) |
| B5 | ++ (++ = >1.5 to 2.5 relative activity over WT GLA (SEQ ID NO: 5)) |
| B6 | ++ (++ = >1.5 to 2.5 relative activity over WT GLA (SEQ ID NO: 5)) |
| B7 | + (+ = 0.5 to 1.5 relative activity over WT GLA (SEQ ID NO: 5)) |
| B8 | + (+ = 0.5 to 1.5 relative activity over WT GLA (SEQ ID NO: 5)) |
| B9 | + (+ = 0.5 to 1.5 relative activity over WT GLA (SEQ ID NO: 5)) |
| B10 | + (+ = 0.5 to 1.5 relative activity over WT GLA (SEQ ID NO: 5)) |
| B11 | + (+ = 0.5 to 1.5 relative activity over WT GLA (SEQ ID NO: 5)) |
